# ± gives the uncertainty stated by the source.
# Experiment: self-splicing fitness, log relative to wild type (ln ratio); higher = more splicing; Tetrahymena group I intron in knt gene, E. coli kanamycin selection, DiMSum; sequences stand for … in CUCUCU…GGAGGGAAAAGUUAUCAGGCAUGCACCUGGUAGCUAGUCUUUAAACCAAUAGAUUGCAUCGGUUUAAAAGGCAAGACCGUCAAAUUGCGGGAAAGGGGUCAACAGCCGUUCAGUACCAAGUCUCAGGGGAAACUUUGAGAUGGCCUUGCAAAGGGUAUGGUAAUAAGCUGACGGACAUGGUCCUAACCACGCAGCCAAGUCCUAAGUCAACAGAUCUUCUGUUGAUAUGGAUGCAGUUCACAGACUAAAUGUCGGUCGGGGAAGAUGUAUUCUUCUCAUAAGAUAUAGUCGGACCUCUCCUUAAUGGGAGCUAGCGGAUGAAGUGAUGCAACACUGGAGCCGCUGGGAACUAAUUUGUAUGCGAAAGUAUAUUGAUUAGUUUUGGAGUACUCGUGGUCG
# How it was run: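 Fitness was computed with DiMSum as the error-weighted combination of replicate fold changes, kanamycin versus none, each normalised to wild type. The library randomised all eight intron nucleotides of the P1ex region, with the intron placed in the knt kanamycin-resistance gene on pET-22b(+) in E. coli BL21(DE3). Six replicate transformations were grown overnight at 37°C or 30°C on LB agar with or without 25 μg/mL kanamycin, plus 100 μg/mL carbenicillin, 50 μM IPTG and 0.2% rhamnose. Pooled colonies were amplicon-sequenced on an Illumina HiSeq 2500.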
Sequence,self-splicing fitness (ln) (30 °C),self-splicing fitness (ln) (37 °C)
GCCUAGCAAUAUUACGUCAA,-2.16 ± 0.22,-1.8 ± 0.18
GUAGAGCAAUAUUACGAGGG,-3.25 ± 0.27,-2.38 ± 0.37
UUGCAGCAAUAUUACGUGUU,-3.1 ± 0.12,-2.47 ± 0.13
CGCGAGCAAUAUUACGGGGG,-3.45 ± 0.38,-3.07 ± 0.32
AGAUAGCAAUAUUACGUACG,-1.38 ± 0.096,-0.00695 ± 0.11
UGUAAGCAAUAUUACGACUA,0.00851 ± 0.12,0.0364 ± 0.14
AGCUAGCAAUAUUACGAUCC,0.0246 ± 0.14,0.559 ± 0.16
UAGCAGCAAUAUUACGAAUA,-0.737 ± 0.1,-0.606 ± 0.11
ACGAAGCAAUAUUACGAGGA,-3.29 ± 0.44,-2 ± 0.29
CGCGAGCAAUAUUACGAUCU,-3.42 ± 0.21,-1.66 ± 0.14
CGUAAGCAAUAUUACGACGG,0.0203 ± 0.061,-0.0967 ± 0.082
GGUCAGCAAUAUUACGCCCU,-0.704 ± 0.14,0.198 ± 0.17
CGGUAGCAAUAUUACGCGAG,-3.58 ± 0.31,-2.36 ± 0.4
ACAUAGCAAUAUUACGCGAC,-3.68 ± 0.42,-0.813 ± 0.18
AUAAAGCAAUAUUACGGUUA,0.442 ± 0.078,0.534 ± 0.09
UUGCAGCAAUAUUACGAGUC,-3.64 ± 0.2,-2.64 ± 0.28
AGAUAGCAAUAUUACGUGCG,-1.19 ± 0.06,-0.409 ± 0.081
UGCAAGCAAUAUUACGGUAA,-1.08 ± 0.12,-0.838 ± 0.11
AGGAAGCAAUAUUACGCACA,-0.546 ± 0.13,0.104 ± 0.19
AAACAGCAAUAUUACGCUUU,-3.11 ± 0.095,-1.33 ± 0.083
GCGUAGCAAUAUUACGAGUA,-1.64 ± 0.16,-0.623 ± 0.13
GAUUAGCAAUAUUACGCAAG,-2.11 ± 0.14,-1.3 ± 0.13
GAUCAGCAAUAUUACGCGCU,-1.86 ± 0.12,-0.35 ± 0.12
GGUUAGCAAUAUUACGCCCA,-0.993 ± 0.27,-1.13 ± 0.3
UUGUAGCAAUAUUACGUAGA,-2.75 ± 0.13,-1.23 ± 0.12

Sequence,self-splicing fitness (ln) (30 °C),self-splicing fitness (ln) (37 °C)
GUUGAGCAAUAUUACGGUCA,-1.81 ± 0.26,-2.45 ± 0.29
AUGCAGCAAUAUUACGAGUG,-2.88 ± 0.11,-1.64 ± 0.11
CUCGAGCAAUAUUACGGAGC,-3.66 ± 0.26,-3.22 ± 0.3
UGCUAGCAAUAUUACGAGCA,–,-2.39 ± 0.39
AUGCAGCAAUAUUACGUCUA,-0.692 ± 0.12,0.148 ± 0.1
GCGAAGCAAUAUUACGGCCG,-1.71 ± 0.29,-1.34 ± 0.37
UGCGAGCAAUAUUACGGAAA,-3.19 ± 0.33,-2.55 ± 0.3
CAGUAGCAAUAUUACGAGCG,-0.475 ± 0.087,0.263 ± 0.12
ACUCAGCAAUAUUACGGAAC,-1.64 ± 0.12,-1.76 ± 0.19
AUACAGCAAUAUUACGGGCG,-1.25 ± 0.077,-1.18 ± 0.11
CCCAAGCAAUAUUACGCAUC,–,-1.32 ± 0.21
GCAGAGCAAUAUUACGCCGA,–,-0.676 ± 0.34
UGUAAGCAAUAUUACGUUGG,-2.14 ± 0.14,-1.46 ± 0.18
CCCGAGCAAUAUUACGUCGU,-2.45 ± 0.12,-3.06 ± 0.24
UAGGAGCAAUAUUACGCCUA,-3.16 ± 0.34,-3.02 ± 0.35
AGCGAGCAAUAUUACGACAA,-3.33 ± 0.41,-1.23 ± 0.3
UGAUAGCAAUAUUACGCUAU,-3.98 ± 0.47,-2.04 ± 0.27
AGCUAGCAAUAUUACGAUCU,0.121 ± 0.12,0.532 ± 0.13
UUCGAGCAAUAUUACGCGGA,-2.94 ± 0.25,-3.71 ± 0.39
GCUAAGCAAUAUUACGAUUU,-0.73 ± 0.065,0.0848 ± 0.075
UCCUAGCAAUAUUACGCUCA,–,-2.48 ± 0.42
AUGGAGCAAUAUUACGGUUU,-2.56 ± 0.26,-2.26 ± 0.21
AAGCAGCAAUAUUACGUCUC,-1.28 ± 0.065,-0.717 ± 0.077
AUACAGCAAUAUUACGAAAU,-1.44 ± 0.087,-0.906 ± 0.11
